The term stoichiometry N denotes a count of units in the complex or per binding partner.

From article PMC6834915 come the findings set out here.

The test concerns the target CdiI^Kp342 immunity protein (untagged) (Klebsiella pneumoniae 342). Nature of the test: crystal structure.

As to “CdiI^Kp342 immunity protein (untagged) (natural protein)”, the stoichiometry N came to 2.
